The labels stand for the following.
T1: chymase (recombinant) (UniProt P23946 P23946:22-247)
T1 sequence: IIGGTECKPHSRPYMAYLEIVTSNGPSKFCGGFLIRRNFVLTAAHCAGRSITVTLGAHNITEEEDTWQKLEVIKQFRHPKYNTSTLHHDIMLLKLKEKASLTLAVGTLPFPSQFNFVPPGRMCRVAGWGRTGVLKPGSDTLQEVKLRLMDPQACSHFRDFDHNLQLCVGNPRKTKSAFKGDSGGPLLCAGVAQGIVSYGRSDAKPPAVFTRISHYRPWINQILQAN

T2: chymase (Homo sapiens, UniProt P23946 P23946:22-247)
T2 sequence: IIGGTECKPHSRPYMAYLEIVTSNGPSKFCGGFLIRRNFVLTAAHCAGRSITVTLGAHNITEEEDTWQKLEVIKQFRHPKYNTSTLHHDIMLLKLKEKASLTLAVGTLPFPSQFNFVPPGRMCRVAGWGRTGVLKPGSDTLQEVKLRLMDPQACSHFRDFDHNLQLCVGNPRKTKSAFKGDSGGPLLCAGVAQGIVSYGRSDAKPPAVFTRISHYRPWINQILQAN

B1: SEQ 31 (ssRNA)
RNA: GGGACGGUAGGAAUUCGUCCCUCAUGUCUAUUUUGCAGAUAGACUUAAAGCAAACAUAGAAGAGCGGCCGC
modifications: 2'-F pyrimidines
B2: SEQ 22 (ssRNA)
RNA: GGGACGGUAGGAAUUCCCGACACAAAAUGUGUGAUUAAUUCCGAACAACAAAGUAACAUAGAAGAGCGGCCGC
modifications: 2'-F pyrimidines
B3: SEQ 34 (ssRNA)
RNA: GGGACGGUAGGAAUUCUGCCGCAACCCAAUGAAAACGAAGAUAGAGAUAAAUCGAACAUAGAAGAGCGGCCGC
modifications: 2'-F pyrimidines
B4: SEQ 32 (ssRNA)
RNA: GGGACGGUAGGAAUUCGUCCUCAUGUCUAUUUUGCAGAUAGACUUAAAGCAAACAUAGAAGAGCGGCCGC
modifications: 2'-F pyrimidines
B5: SEQ 33 (ssRNA)
RNA: GGGACGGUAGGAAUUCCUGUCUUUUCCCACGCAACAAAUUACAGAGCUUUGCAAAACAUAGAAGAGCGGCCGC
modifications: 2'-F pyrimidines
B6: SEQ 28 (ssRNA)
RNA: GGGACGGUAGGAAUUCAAUUUCUUUCUAUUCUCACCUGAGUAUAUCAGGCACAGUACAUAGAAGAGCGGCCGC
modifications: 2'-F pyrimidines
B7: SEQ 20 (ssRNA)
RNA: GGGACGGUAGGAAUUCAAAAUCAGCUGAUUUGUAAUUUUUUUACACAGGCAAAACACAUAGAAGAGCGGCCGC
modifications: 2'-F pyrimidines
B8: SEQ 60 (ssRNA)
RNA: GGGUUAGAUAGAGCUAAAAACCC
modifications: 2'-F pyrimidines
B9: SEQ 62 (ssRNA)
RNA: GGGUUGGAUAGAGUUAAGAACCC
modifications: 2'-F pyrimidines
B10: SEQ 61 (ssRNA)
RNA: GGGUUAGAUAGAUUUAAAAACCC
modifications: 2'-F pyrimidines
B11: SEQ 64 (ssRNA)
RNA: GUCACAGAUAGAGUUAAAGUGAC
modifications: 2'-F pyrimidines
B12: SEQ 63 (ssRNA)
RNA: GCUACAGAUAGAGUUAAAGUAGC
modifications: 2'-F pyrimidines
B13: SEQ 65 (ssRNA)
RNA: GGCAGAUAGAGUUAAAGCC
modifications: 2'-F pyrimidines
B14: SEQ 59 (ssRNA)
RNA: GGGUUAGAUAGAGAUAAAAACCC
modifications: 2'-F pyrimidines
B15: SEQ 10 (ssRNA)
RNA: GGGACGGUAGGAAUUCCGCCGCCUAAAAAACGACGAUAUUACAGAAACGUCAAAUACAUAGAAGAGCGGCCGC
modifications: 2'-F U and C
B16: SEQ 16 (ssRNA)
RNA: GGGACGGUAGGAAUUCCCAUGACUGAAAAACGUCAGUAAAAUCCGAAAAUCAUAUCAUAGAAGAGCGGCCGC
modifications: 2'-F U and C
B17: SEQ 27 (ssRNA)
RNA: GGGACGGUAGGAAUUCCGUCAUCGGUUGCAAAUUGAAAAUACAAAACAAGGACAACCAUAGAAGAGCGGCCGC
modifications: 2'-F U and C
B18: SEQ 29 (ssRNA)
RNA: GGGACGGUAGGAAUUCACGACCGCCCAAAAAAUGGUGACAUUUUAGAAACACCGAACAUAGAAGAGCGGCCGC
modifications: 2'-F U and C
B19: SEQ 7 (ssRNA)
RNA: GGGACGGUAGGAAUUCACCUUUCCAAUUGUGAAAGAAACACAAAAAGAAAUGACAUCAUAGAAGAGCGGCCGC
modifications: 2'-F U and C
B20: SEQ 69 (ssRNA)
RNA: AAAGGGUUAGAUAGAGUUAAAAACCC
modifications: PEG-A(M)A(M)A(M)G(M)G(M)G(M)U(F)U(F)AG(M)A(M)U(F)A(M)GAG(M)U(F)U(F)A(M)A(M)A(M)A(M)A(M)C(F)C(F)C(F)-idT (M=2'-OMe, F=2'-F)
B21: 56(27) (ssRNA)
RNA: GGGUUAGAUAGAGUUAAAAACCC
modifications: PEG-G(M)G(M)G(M)U(F)U(F)AG(M)A(M)U(F)A(M)GAG(M)U(F)U(F)A(M)A(M)A(M)A(M)A(M)C(F)C(F)C(F)-idT (M=2'-OMe, F=2'-F)
B22: 72(8) (mixed)
mixed: GGGTTAGAUAGAGTUAAAAACCC
modifications: B-idT-G(M)G(M)G(M)ttAG(M)aU(F)A(M)GAG(M)tU(F)A(M)A(M)A(M)A(M)A(M)ccc-idT (lower case DNA, B=biotin)
B23: SEQ 57 (ssRNA)
RNA: GCAUUUGAGAUAGAUUUAAACAAACGC
modifications: 2'-F pyrimidines
B24: SEQ 54 (ssRNA)
RNA: UAACUAUGGUUAGAUAGAGUUAAAAACCAUAGAAGA
modifications: 2'-F pyrimidines
B25: SEQ 53 (ssRNA)
RNA: GGGUAACUAUGGUUAGAUAGAGUUAAAAACCAUAGAAGACCC
modifications: 2'-F pyrimidines
B26: SEQ 49 (ssRNA)
RNA: GGUUCUACAGAUAGAGAUAAAGUAGAACC
modifications: 2'-F pyrimidines
B27: SEQ 55 (ssRNA)
RNA: CUAUGGUUAGAUAGAGUUAAAAACCAUAG
modifications: 2'-F pyrimidines
B28: SEQ 50 (ssRNA)
RNA: GGCAUUCUACAGAUAGAGAUAAAGUAGAAUUUAAC
modifications: 2'-F pyrimidines
B29: SEQ 51 (ssRNA)
RNA: CGUUACAUAAUGUAUAUACCAGGGUAACUAAACAUAGAAGAGCGG
modifications: 2'-F pyrimidines

The target in one data set is T1, chymase (recombinant). The data set is described as follows: inhibition; SPR +. The conditions noted are these: tags: SIGMA, expressed in yeast. As for the experimental part:
(§1) Here, Suc is a protecting succinyl group, and MCA is a 4-methylcoumaryl-7-amide group; upon cleavage of the C-terminal side of phenylalanine, AMC (7-amino-4-methyl-coumarine) is released. By detecting the fluorescence of this AMC, the enzyme activity of chymase can be determined. The assay was performed using a 96-well plate (F16 Black Maxisorp Fluoronunc, manufactured by Nunc), with a reaction mixture volume of 100 μL, in solution C as a buffer solution. First, each nucleic acid was serially diluted to 0.0027-2 μM concentrations in solution C to obtain 50 μL solutions. After 10 μL of the 1 mM substrate prepared in solution C was added thereto, the plate was set to the microplate reader SpectraMax190 (manufactured by Molecular Devices Corporation), and incubated at 37° C. for 5 minutes. Separately, 0.05 μg (or 0.005 μg) of chymase (recombinant, manufactured by SIGMA) was diluted in solution C to obtain a 40 μL chymase solution, and incubated at 37° C. for 5 minutes. The chymase solution was added to the mixture of the nucleic acid and substrate to initiate an enzyme reaction. The final chymase concentration in the reaction mixture was 16.7 nM (or 1.67 nM), the final substrate concentration being 100 μM. The plate containing the reaction mixture was set to the microplate reader SpectraMax190 (manufactured by Molecular Devices Corporation), and examined for time-dependent changes in the fluorescence intensity at 37° C. for 5 minutes (or 30 minutes) (excitation wavelength 380 nm, detection wavelength 460 nm). A linear approximation of the increase in the fluorescence of the AMC released from the substrate by chymase activity was generated, and its slope was taken as the initial velocity […]. For control, samples were treated and analyzed in the same manner in two cases: use of a 30N or 40N (a nucleotide of 30 or 40 consecutive bases represented by N; N is A, G, C or T) nucleic acid pool (negative control), and use of chymostatin, a known chymotrypsin-like serine protease inhibitor (positive control). Taking the initial reaction velocity without the nucleic acid and inhibitor (V_0) as a 100% enzyme activity, the inhibitory rate of each test substance was calculated using the following equation: […]
One may read the IC50 as the concentration at which inhibition is half-maximal. As to B1, the IC50 is 155 nM.

Consider B2, for which the IC50 was 105 nM.

Regarding B3, the half-inhibitory concentration (IC50) was 137 nM.

Take B4: the IC50 is 235 nM.

For the molecule B5, the concentration for half-maximal inhibition (IC50) turned out to be 145 nM.

Regarding B6, the IC50 amounted to 45 nM.

In the case of B7, the IC50 was found to be 282 nM.

In the next data set the target is T1, chymase (recombinant). The data set is described as follows: inhibition; SPR ++. The settings on record: tags: SIGMA, expressed in yeast. As for the experimental part: as §1, with “By” for “Here, Suc is a protecting succinyl group, and MCA is a 4-methylcoumaryl-7-amide group; upon cleavage of the C-terminal side of phenylalanine, AMC (7-amino-4-methyl-coumarine) is released. By”
All nucleic acids of SEQ ID NO: 58-68 were prepared by chemical synthesis. Whether these nucleic acids are bound to chymase was assessed by surface plasmon resonance method in the same manner as in Example 4. The inhibitory activity on chymase was measured in the same manner as in Example 3.
For B8, the half-maximal inhibitory concentration (IC50) was 26 nM.

As to B9, the IC50 stood at 29 nM.

In the case of B10, the IC50 came out at 23 nM.

In the case of B11, the IC50 came out at 20 nM.

Turning to B12, the IC50 was determined as 23 nM.

For B13, the IC50 was determined as 56 nM.

With B14, the IC50 was determined as 38 nM.

The next data set addresses T2, chymase. The data set is described as follows: SPR; stronger than 40N; solution A. The settings on record: tags: human skin mast cell, Calbiochem. As for the experimental part: The binding activities against chymase of the nucleic acids shown by SEQ ID NO: 4-20 and 22-34 were determined by the surface plasmon resonance method using Biacore T100 (manufactured by GE Healthcare). The sensor chip used was the SA chip, which had streptavidin immobilized thereon. Bound thereto was about 1500 RU of a 16-nucleotide Poly dT with biotin bound to the 5' end thereof. […] 20 μL of chymase for analyte, prepared at 0.2 μM, was injected. Solution A was used as a running buffer.
A general note: SPR reads the build-up and loss of mass on a sensor chip optically.
B15: the binding result is listed as “binds”.

Regarding B16, the binding result was “binds”.

As to B17, the binding result is “binds”.

With B18, the binding result is “binds”.

B19: the binding result is “binds”.

For another data set, the target named is T1, chymase (recombinant). The data set is described as follows: inhibition; SPR not determined. The settings on record: tags: SIGMA, expressed in yeast. As for the experimental part:
as §1, with “The chymase solution was added to the mixture of the nucleic acid and substrate to initiate an enzyme reaction. The final chymase concentration in the reaction mixture was 16.7 nM (or 1.67 nM), the final substrate concentration being 100 μM.” left out
The chymase inhibitory activity was measured in the same manner as in Example 3.
As to B20, the IC50 stood at 91 nM.

Take B21: the IC50 came out at 84 nM.

Staying with this data set, now noted: tags: SIGMA, expressed in yeast; label: biotin.
Consider B22, for which the IC50 was determined as 18 nM.

For the next data set, the target named is T1, chymase (recombinant). The data set is described as follows: inhibition; SPR ++. The settings on record: tags: SIGMA, expressed in yeast. The source holds these as a separate data set. Here is the method: as §1
Chymase inhibitory activity was determined in the same manner as Example 3.
With B23, the IC50 worked out at 99 nM.

For B24, the IC50 is 51 nM.

On to B25, for which the concentration for half-maximal inhibition (IC50) was found to be 66 nM.

With B26, the concentration for half-maximal inhibition (IC50) came out at 117 nM.

B27: the IC50 is 55 nM.

Regarding B28, the IC50 turned out to be 138 nM.

Consider B29, for which the IC50 was 24 nM.

These data come from US9012420B2, “Aptamer for chymase, and use thereof” (Ribomic Inc., priority 2009, dated 2015).
